The text below walks through data of article PMC11598966.

Assay [1] deals with Rhinovirus C15 (RV-C15) virus particles (rhinovirus C15). Briefly: ELISA. In general terms: In an ELISA, binding on a coated surface is turned into a signal by an enzyme label.
Assay [2] shares this target.
For assay [3] the target is unchanged. The experiment in a line: ELISA; RV-C15 coated on the plate; native SP-A or recombinant SP-A variants at a single concentration of 10 µg/mL, with 5 mM CaCl2; A490 nm.

In turn, “Native surfactant protein A (SP-A) (from UniProt Q8IWL2 21-248; Q8IWL1 21-248) (complex)” showed an A490nm at 10 µg/mL in assay [1] of 2.01 A490nm.
As to “Recombinant SP-A2 [A91, K223] (from UniProt Q8IWL1 21-248) (natural protein)”, the RV-C15-GFP viral copy numbers in NECs at 48 h with rSP-A2 [A91, K223] at 400 µg/mL, percent of RV-C15-GFP infection control (% of RV-C15-GFP infection control) in assay [2] stood at 40.2. For the same substance, in assay [3], the A490nm at 10 µg/mL came to 1.19 A490nm.
In assay [2], “Recombinant SP-A2 [A91, Q223] (from UniProt Q8IWL1 21-248) (natural protein)” gave an RV-C15-GFP viral copy numbers in NECs at 48 h with rSP-A2 [A91, Q223] at 400 µg/mL, percent of RV-C15-GFP infection control (% of RV-C15-GFP infection control) of 54.8. The A490nm at 10 µg/mL in assay [3] was found to be 0.19 A490nm.
Consider “Recombinant SP-A2 [P91, K223] (from UniProt Q8IWL1 21-248) (natural protein)”, for which, in assay [3], the A490nm at 10 µg/mL was 1.67 A490nm.
With “Recombinant SP-A2 [P91, Q223] (from UniProt Q8IWL1 21-248) (natural protein)”, the A490nm at 10 µg/mL in assay [1] turned out to be 1.61 A490nm.
